B1: C-terminal IDR of Sc Ded1p (residues 533-604) (domain or fragment, S. cerevisiae, UniProt P06634 533-604, looked up)
chain: MMSAPGSRSNSRRGGFGRNNNRDYRKAGGASAGGWGSSRSRDNSFRGGSGWGSDSKSSGWGNSGGSNNSSWW
notes: Ded1p (DEAD-box RNA helicase), S. cerevisiae, C-terminal intrinsically disordered region, residues 533-604; 15N isotope labelled (NMR visible) in the titrations; also called C-IDR; source: E. coli, purified (Ni-NTA, TEV cleavage, second Ni-NTA, size exclusion); not shown: His6, N-terminal, cleaved
B2: N-terminal IDR of Sc Ded1p (residues 1-81) (domain or fragment, S. cerevisiae, UniProt P06634 1-81, looked up)
chain: MAELSEQVQNLSINDNNENGYVPPHLRGKPRSARNNSSNYNNNNGGYNGGRGGGSFFSNNRRGGYGNGGFFGGNNGGSRSN
notes: Ded1p (DEAD-box RNA helicase), S. cerevisiae, N-terminal intrinsically disordered region, residues 1-81; 15N and/or 13C isotope labelled when it was the NMR-visible partner, grown in LB (unlabelled) when NMR invisible; also called N-terminal region; N-IDR; source: E. coli, purified (Ni-NTA, TEV cleavage, second Ni-NTA, size exclusion); not shown: His6, N-terminal, cleaved

How the values were obtained:
Conditions in all cases: both partners purified
[1] = target: T1, helicase core region of Sc Ded1p (RecA1-RecA2, residues 82-535) (S. cerevisiae, UniProt P06634 82-535); assay: NMR titration; 1H-15N spectra of the isotope-labelled C-terminal IDR; unlabelled helicase core, RecA1 or RecA2 added; visible condensation in the NMR tube; 20 mM HEPES pH 7.3, 125 mM NaCl, 1 mM DTT, 5% D2O
T1 construct: Ded1p (DEAD-box RNA helicase), S. cerevisiae, helicase core region (RecA1-RecA2), residues 82-535; Used unlabelled (NMR invisible); also called Sc helicase domain (RecA1-RecA2); helicase core domain; source: E. coli, purified (Ni-NTA, TEV cleavage, second Ni-NTA, size exclusion); not shown: His6, N-terminal, cleaved
T1 sequence (P06634 82-535): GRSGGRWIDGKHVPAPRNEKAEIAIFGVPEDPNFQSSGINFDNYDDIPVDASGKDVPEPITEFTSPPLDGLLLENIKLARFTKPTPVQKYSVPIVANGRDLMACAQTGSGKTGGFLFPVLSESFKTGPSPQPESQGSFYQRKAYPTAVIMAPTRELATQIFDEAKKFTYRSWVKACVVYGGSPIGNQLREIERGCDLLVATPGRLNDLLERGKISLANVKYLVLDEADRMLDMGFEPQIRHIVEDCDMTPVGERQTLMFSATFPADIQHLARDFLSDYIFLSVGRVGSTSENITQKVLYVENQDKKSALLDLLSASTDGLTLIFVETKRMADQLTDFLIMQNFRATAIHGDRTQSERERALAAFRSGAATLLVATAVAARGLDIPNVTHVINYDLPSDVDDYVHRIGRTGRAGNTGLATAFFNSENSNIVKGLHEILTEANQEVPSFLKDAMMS

[2] = target: T2, RecA1 domain of Sc Ded1p (residues 82-369) (S. cerevisiae, UniProt P06634 82-369); assay: as above
T2 construct: Ded1p (DEAD-box RNA helicase), S. cerevisiae, first RecA domain, residues 82-369; Used unlabelled (NMR invisible); also called first RecA domain; RecA1 subdomain; source: E. coli, purified (Ni-NTA, TEV cleavage, second Ni-NTA, size exclusion); not shown: His6, N-terminal, cleaved
T2 sequence (P06634 82-369): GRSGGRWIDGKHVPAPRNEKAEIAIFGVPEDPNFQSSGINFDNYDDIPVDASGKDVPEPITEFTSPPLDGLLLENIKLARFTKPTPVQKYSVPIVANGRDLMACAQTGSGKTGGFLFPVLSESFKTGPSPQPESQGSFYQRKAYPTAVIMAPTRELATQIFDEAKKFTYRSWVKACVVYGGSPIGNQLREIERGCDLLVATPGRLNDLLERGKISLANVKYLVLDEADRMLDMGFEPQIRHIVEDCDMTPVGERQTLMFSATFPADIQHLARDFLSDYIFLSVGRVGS

[3] = target: T1, helicase core region of Sc Ded1p …; assay: NMR titration; 1H-15N spectra of the isotope-labelled N-terminal IDR; unlabelled helicase core, RecA1 or RecA2 added; 20 mM HEPES pH 7.3, 125 mM NaCl, 1 mM DTT, 5% D2O
[4] = target: T3, RecA2 domain of Sc Ded1p (residues 369-535) (S. cerevisiae, UniProt P06634 369-535); assay: as above
T3 construct: Ded1p (DEAD-box RNA helicase), S. cerevisiae, second RecA domain, residues 369-535; 15N and/or 13C isotope labelled when it was the NMR-visible partner, unlabelled when NMR invisible; also called second RecA domain; Rec2 subdomain; source: E. coli, purified (Ni-NTA, TEV cleavage, second Ni-NTA, size exclusion); not shown: His6, N-terminal, cleaved
T3 sequence (P06634 369-535): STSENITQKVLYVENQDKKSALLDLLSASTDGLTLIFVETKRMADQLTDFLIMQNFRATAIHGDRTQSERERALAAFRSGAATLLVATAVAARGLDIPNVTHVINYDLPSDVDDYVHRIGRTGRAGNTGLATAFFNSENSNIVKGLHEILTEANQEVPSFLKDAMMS

Binder	binding result [1]	binding result [2]	binding result [3]	binding result [4]
B1	binds	binds		
B2			binds	binds

Source: doi:10.1101/2022.10.11.511767, “A conserved and tunable mechanism for the temperature-controlled condensation of the translation factor Ded1p” (bioRxiv, 2022)
